Consider two molecules from US20090149389A1 (PURDUE RESEARCH FOUNDATION, published 2009).

Some targets named below: MAPKAP-K3 (h) (human (h), UniProt Q16644 1-382, limits assumed); SAPK2 a (h) (human (h), UniProt Q16539 1-360); JNK1α1 (h) (human (h), UniProt P45983-2 1-384); BTK (h) (human (h), UniProt Q06187 1-659); MAPKAP-K2 (h) (human (h), UniProt P49137 46-400, limits assumed); ROCK-1 (h) (human (h), UniProt Q13464 17-535, limits assumed); Lck (h) (human (h), UniProt P06239 1-509); CKIB (h) (human (h)); Rsk2 (h) (human (h), UniProt P51812 1-740); JAK3 (h) (human (h), UniProt P52333 781-1124, limits assumed); Pim-1 (h) (human (h), UniProt P11309 1-313); Syk (h) (human (h), UniProt P43405 1-635).

Holding throughout (experiment): cell-based or functional assay
The next experiment has as its target T1, PKG1β (h) (human (h), UniProt Q13976-2 1-686).
T1 sequence (looked up): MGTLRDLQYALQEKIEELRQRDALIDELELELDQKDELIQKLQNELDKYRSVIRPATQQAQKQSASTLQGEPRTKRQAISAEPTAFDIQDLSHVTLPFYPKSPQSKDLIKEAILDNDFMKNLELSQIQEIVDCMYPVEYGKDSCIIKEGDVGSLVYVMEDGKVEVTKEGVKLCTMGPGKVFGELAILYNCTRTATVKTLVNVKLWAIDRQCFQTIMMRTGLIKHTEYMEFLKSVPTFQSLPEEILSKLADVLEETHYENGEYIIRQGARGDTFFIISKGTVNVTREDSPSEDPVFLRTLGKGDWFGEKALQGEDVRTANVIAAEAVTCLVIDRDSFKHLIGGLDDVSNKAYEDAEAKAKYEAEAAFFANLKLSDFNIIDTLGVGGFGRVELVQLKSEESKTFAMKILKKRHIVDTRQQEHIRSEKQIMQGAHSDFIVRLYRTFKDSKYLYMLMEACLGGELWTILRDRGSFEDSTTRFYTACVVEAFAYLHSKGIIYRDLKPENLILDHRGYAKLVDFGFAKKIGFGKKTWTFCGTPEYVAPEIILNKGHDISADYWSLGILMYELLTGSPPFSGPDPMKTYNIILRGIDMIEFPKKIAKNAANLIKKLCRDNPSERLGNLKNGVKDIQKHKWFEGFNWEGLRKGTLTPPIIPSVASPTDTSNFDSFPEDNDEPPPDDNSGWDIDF

The target in experiment [1] is T2, Aurora-A (h) (human (h), UniProt O14965 1-403).
T2 sequence (looked up): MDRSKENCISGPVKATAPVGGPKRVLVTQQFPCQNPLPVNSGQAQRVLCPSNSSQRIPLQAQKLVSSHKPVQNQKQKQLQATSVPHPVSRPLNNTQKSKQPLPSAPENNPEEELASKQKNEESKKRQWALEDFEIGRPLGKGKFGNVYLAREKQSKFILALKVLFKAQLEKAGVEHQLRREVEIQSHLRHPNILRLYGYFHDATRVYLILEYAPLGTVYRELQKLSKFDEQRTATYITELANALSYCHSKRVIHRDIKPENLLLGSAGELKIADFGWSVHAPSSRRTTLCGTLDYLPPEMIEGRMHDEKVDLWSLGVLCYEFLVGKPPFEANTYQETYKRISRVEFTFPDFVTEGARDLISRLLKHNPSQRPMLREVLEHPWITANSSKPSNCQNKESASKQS

The target in the next experiment is T3, EphA2 (h) (human (h), UniProt P29317 591-976, limits assumed).
T3 sequence (looked up): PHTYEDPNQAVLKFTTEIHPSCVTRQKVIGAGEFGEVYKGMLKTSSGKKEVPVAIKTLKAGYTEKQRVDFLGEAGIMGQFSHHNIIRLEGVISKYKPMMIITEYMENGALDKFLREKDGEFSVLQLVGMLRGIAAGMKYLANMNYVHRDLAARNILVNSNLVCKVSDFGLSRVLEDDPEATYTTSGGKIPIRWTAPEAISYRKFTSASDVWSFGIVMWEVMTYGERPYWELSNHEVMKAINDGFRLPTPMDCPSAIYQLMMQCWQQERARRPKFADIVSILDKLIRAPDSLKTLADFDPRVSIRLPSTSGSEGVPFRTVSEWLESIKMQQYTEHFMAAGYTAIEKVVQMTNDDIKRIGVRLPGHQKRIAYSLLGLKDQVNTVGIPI

For another experiment, the target named is T4, IRAK4 (h) (human (h), UniProt Q9NWZ3 1-460, limits assumed).
T4 sequence (looked up): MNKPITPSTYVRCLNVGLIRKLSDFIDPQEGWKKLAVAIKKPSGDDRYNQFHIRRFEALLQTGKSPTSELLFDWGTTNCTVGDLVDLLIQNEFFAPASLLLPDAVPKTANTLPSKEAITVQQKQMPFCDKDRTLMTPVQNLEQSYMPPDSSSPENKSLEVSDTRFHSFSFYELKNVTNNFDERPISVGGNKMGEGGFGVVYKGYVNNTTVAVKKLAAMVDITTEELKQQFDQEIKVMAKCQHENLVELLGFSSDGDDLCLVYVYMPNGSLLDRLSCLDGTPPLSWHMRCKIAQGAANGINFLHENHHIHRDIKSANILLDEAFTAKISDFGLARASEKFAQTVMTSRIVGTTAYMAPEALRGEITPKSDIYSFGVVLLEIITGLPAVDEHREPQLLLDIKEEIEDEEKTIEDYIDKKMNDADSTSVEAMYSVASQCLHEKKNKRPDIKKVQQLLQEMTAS

The target of experiment [2] is T2, Aurora-A (h). The source holds these as a separate data set.

JNK1α1 (h), sequence (P45983 other isoform, or with tags, fused parts or gaps limits assumed): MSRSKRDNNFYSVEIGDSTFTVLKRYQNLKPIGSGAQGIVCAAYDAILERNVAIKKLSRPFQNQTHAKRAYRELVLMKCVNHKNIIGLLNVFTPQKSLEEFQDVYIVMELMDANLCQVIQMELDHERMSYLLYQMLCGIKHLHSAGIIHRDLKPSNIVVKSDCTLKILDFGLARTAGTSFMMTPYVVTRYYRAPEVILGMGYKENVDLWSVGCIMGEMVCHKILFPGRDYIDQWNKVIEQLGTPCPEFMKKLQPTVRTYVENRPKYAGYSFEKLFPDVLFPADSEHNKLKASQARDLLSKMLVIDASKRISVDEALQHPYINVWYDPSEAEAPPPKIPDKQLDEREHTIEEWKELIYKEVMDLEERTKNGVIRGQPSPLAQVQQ
ROCK-1 (h), sequence (Q13464 17-535 limits assumed): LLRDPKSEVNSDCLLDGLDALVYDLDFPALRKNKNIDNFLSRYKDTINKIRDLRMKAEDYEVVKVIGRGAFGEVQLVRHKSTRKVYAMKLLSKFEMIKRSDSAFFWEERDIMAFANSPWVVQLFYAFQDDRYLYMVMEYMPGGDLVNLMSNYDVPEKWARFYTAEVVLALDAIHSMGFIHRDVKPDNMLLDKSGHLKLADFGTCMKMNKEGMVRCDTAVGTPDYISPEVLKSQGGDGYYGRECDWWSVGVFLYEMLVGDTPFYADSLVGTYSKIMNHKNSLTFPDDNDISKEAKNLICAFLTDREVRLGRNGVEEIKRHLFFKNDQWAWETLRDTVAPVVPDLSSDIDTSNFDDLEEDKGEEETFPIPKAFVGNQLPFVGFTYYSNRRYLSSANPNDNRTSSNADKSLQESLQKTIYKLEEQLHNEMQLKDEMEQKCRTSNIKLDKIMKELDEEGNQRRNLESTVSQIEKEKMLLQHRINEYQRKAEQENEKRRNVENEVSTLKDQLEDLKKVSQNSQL
MAPKAP-K3 (h), sequence (Q16644 whole entry): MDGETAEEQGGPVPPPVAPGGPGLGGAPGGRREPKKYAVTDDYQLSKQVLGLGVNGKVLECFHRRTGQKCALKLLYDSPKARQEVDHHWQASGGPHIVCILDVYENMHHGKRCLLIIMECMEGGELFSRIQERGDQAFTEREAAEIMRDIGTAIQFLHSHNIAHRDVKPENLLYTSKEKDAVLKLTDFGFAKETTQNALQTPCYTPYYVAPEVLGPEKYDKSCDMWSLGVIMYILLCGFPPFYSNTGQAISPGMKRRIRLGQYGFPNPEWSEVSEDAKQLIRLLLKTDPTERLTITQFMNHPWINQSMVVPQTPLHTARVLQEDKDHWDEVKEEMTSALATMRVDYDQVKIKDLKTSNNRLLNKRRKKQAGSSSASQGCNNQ
Rsk2 (h), sequence (P51812 whole entry): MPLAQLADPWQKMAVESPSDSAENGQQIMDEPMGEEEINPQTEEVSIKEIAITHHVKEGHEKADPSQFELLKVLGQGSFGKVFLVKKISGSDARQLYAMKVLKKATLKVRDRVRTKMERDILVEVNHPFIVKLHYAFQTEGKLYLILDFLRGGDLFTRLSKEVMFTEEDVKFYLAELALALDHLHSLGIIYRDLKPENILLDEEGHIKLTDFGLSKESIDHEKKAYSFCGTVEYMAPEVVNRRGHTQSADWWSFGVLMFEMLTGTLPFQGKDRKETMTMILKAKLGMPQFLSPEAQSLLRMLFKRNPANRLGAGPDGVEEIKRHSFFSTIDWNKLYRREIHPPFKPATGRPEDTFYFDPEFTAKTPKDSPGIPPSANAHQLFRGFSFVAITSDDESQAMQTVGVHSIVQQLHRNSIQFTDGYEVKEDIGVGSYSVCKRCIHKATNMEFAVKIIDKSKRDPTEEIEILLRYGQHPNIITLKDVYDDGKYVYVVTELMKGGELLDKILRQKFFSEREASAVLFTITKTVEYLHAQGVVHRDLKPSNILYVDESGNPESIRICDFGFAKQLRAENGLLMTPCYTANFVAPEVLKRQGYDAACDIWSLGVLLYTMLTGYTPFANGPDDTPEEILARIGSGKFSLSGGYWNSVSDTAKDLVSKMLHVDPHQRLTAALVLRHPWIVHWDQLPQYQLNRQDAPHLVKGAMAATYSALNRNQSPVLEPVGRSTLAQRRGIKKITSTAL
SAPK2 a (h), sequence (Q16539 whole entry): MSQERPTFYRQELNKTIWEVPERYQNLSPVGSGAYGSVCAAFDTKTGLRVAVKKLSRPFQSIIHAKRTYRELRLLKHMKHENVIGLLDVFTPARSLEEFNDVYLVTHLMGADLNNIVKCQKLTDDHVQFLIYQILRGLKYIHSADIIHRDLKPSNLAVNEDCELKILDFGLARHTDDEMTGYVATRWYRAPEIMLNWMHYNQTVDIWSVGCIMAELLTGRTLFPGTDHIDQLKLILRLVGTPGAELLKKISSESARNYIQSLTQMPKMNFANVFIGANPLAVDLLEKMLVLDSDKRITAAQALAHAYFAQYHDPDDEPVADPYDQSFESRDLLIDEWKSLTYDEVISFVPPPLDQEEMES
BTK (h), sequence (Q06187 whole entry): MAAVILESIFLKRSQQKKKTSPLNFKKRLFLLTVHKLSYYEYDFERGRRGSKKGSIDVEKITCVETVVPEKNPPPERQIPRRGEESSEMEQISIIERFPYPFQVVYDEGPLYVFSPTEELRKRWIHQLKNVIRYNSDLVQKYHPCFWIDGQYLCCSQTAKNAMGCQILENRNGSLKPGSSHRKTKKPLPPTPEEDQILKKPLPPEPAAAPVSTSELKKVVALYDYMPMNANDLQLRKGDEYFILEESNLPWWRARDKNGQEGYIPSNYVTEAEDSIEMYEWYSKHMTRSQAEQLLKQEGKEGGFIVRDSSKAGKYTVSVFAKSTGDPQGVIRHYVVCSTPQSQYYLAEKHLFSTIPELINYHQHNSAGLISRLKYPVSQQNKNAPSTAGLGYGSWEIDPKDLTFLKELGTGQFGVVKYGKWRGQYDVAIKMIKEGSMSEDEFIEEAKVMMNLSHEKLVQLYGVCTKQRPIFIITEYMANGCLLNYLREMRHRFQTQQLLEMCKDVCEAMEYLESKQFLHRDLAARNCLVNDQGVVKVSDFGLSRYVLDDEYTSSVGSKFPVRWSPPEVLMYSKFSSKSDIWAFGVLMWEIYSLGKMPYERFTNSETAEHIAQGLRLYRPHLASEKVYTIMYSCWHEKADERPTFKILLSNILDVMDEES
JAK3 (h), sequence (P52333 781-1124 limits assumed): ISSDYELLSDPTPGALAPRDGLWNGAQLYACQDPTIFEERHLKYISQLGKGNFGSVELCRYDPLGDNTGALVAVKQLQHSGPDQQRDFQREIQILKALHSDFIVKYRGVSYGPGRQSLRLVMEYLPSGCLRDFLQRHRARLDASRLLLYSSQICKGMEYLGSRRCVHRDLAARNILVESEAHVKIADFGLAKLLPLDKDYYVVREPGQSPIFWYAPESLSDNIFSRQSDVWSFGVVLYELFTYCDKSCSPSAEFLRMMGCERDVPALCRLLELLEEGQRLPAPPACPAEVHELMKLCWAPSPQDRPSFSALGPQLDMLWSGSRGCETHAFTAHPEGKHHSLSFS
Lck (h), sequence (P06239 whole entry): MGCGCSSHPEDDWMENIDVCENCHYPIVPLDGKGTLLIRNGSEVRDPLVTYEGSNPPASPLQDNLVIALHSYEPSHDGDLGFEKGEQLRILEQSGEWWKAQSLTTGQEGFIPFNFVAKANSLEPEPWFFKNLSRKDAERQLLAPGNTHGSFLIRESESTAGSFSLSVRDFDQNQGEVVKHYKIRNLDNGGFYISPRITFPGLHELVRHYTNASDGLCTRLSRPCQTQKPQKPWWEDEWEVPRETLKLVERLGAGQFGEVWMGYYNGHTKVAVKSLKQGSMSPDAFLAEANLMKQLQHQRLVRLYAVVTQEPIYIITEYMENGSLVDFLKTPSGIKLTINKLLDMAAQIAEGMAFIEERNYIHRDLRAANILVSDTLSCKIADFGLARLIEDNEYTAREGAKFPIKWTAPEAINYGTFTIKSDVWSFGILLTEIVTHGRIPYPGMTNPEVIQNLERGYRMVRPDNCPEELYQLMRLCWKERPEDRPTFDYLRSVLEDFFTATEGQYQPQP
MAPKAP-K2 (h), sequence (P49137 46-400 limits assumed): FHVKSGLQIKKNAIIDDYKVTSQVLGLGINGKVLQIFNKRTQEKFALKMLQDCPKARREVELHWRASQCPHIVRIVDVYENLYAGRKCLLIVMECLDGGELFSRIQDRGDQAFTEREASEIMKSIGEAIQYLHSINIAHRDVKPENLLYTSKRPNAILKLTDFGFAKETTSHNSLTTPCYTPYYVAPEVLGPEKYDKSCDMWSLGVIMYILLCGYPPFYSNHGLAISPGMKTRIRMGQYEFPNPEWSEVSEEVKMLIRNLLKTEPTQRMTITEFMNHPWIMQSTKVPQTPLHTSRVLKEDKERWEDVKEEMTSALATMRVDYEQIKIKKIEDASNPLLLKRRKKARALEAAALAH
Pim-1 (h), sequence (P11309 whole entry): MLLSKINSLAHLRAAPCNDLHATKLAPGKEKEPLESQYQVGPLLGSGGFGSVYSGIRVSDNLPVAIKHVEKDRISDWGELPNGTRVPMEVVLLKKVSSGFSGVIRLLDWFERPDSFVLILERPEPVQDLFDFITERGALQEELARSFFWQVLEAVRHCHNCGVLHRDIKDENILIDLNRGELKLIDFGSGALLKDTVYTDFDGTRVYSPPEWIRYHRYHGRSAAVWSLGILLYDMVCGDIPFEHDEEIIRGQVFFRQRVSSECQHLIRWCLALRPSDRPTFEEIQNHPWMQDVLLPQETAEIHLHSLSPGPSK

Consider FAKLAARLYRKALARQLGVAA, for which the “Profile-1 @ = 100 µm (kinase profiler assay)” value (“Profile-1 @ = 100 µm” below) with MAPKAP-K3 (h) was 10; with SAPK2 a (h) it was 30; with JNK1α1 (h), 91; with BTK (h) it was 19; in the experiment with PKG1β (h) it was 15; in the experiment with Aurora-A (h) [1], 65. The “Profile-1 @ = 100 µm” value with MAPKAP-K2 (h) came to 5; with ROCK-1 (h) it was 25; with Lck (h) it was 493; in the experiment with CKIB (h) it was 99; in the experiment with EphA2 (h) it was 32; with IRAK4 (h), 13. The “Profile-1 @ = 100 µm” value in the experiment with Rsk2 (h) was -1; with JAK3 (h), 102.
For WLRRIKAWLRRIKALNRQLGVAA, the “Profile-1 @ = 30 µm (kinase profiler assay)” value with Pim-1 (h) was 5; in the experiment with Syk (h), 19; in the experiment with Aurora-A (h) [2] it was 46.
